Patent publication US20050208585A1 (published 2005)

T1: human c-mpl (thrombopoietin receptor) on HU-03 cells and human platelets (human, UniProt P40238 26-635)
T1 construct: whole, on cells; also called mpl receptor; TPO receptor
T1 sequence (looked up): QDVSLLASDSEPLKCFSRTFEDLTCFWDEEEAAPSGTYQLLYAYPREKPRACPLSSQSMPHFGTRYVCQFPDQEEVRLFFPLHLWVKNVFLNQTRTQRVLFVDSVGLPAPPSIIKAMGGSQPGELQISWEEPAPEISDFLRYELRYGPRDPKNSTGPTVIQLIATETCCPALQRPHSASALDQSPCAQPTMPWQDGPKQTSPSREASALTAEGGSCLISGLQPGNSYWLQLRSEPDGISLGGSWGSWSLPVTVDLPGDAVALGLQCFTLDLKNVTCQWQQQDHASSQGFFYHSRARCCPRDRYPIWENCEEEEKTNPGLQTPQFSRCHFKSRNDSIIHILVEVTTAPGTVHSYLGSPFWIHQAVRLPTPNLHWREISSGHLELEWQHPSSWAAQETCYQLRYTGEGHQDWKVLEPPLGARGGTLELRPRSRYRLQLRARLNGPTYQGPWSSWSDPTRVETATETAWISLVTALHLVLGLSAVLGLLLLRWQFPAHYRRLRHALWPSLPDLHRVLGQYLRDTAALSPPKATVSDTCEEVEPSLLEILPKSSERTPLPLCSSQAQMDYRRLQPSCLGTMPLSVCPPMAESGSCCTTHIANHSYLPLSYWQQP

T2: mpl-Ig (UniProt P40238 26-491)
T2 construct: From conditioned media of mpl-Ig-transfected 293 cells, captured on rabbit anti-human IgG Fc; also called mpl-IgG; not shown: Ig part, captured by anti-human IgG Fc
T2 sequence (looked up): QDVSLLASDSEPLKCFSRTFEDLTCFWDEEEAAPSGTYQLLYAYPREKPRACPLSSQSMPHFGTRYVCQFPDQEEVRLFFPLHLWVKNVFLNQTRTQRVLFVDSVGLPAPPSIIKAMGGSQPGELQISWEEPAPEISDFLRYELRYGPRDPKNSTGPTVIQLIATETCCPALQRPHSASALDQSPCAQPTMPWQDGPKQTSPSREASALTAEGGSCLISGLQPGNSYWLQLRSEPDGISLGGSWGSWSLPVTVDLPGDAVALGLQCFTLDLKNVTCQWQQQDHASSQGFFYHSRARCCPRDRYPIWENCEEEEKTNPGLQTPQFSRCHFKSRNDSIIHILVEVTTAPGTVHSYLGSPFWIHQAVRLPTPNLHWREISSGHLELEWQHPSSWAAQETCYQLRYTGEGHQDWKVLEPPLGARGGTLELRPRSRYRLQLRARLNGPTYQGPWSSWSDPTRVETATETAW

B1: 12E10 scFv (scFv)
chain: MAQVQLQQSGPGLVKPSETLSLTCTVSGDSISSYYWSWIRQPPGKGLEWIGYIYYSGSTNYNPSLKSRVTISVDTSKSQFSLKLSSVTAADTAVYYCARGRYFDVWGRGTMVTVSSGGGGSGGGGSGGGGSSYVLTQPPSVSGSPGQSITISCTGTSSDVGGYNYVSWYQQHPGKAPKLMIYEGSKRPSGVSNRFSGSKSGNTASLTISGLQAEDEADYYCSSYTTRSTRVFGGGTKLTVLGAA
B2: 12B5 Fab (Fab, from another filing)
scFv: MAQVQLVQSGGGLVRPGGSLSLSCAVSGITLRTYGMHWVRQAPGKGLEWVAGISFDGRSEYYADSVQGRFTISRDSSKNTLYLQMNSLRAEDTAVYYCARGAHYGFDIWGQGTMVTVSSGGGGTGGGGSGGGGSDIQMTQSPSTLSASIGDRVTITCRASEGIYHWLAWYQQKPGKAPKLLIYKASSLASGAPSRFSGSGSGTDFTLTISSLQPDDFATYYCQQYSNYPLTFGGGTELEIKRAA
B3: 12B5 scFv (scFv)
chain: B2 scFv
B4: 12D5 Fab (Fab, V domains shown)
VH: QVQLVESGGGLVKPGGSLRLSCAASGFTFSSHNMNWVRQAPGKGLEWVSSISSSSSYIYYADSVKGRFTISRDNAKNSLYLQMNSLRAEDTAVYYCARDRGSTGMDVWGRGTLVTVSS
VL: DIVMTQSPSTLSASIGDRVTITCRASEGIYHWLAWYQQKPGKAPKLLIYKASSLASGAPSRFSGSGSGTDFTLTISSLQPDDFATYYCQQYSNYPLTFGGGTELEIKR
B5: 12B5 IgG (antibody, V domains shown)
VH: QVQLVQSGGGLVRPGGSLSLSCAVSGITLRTYGMHWVRQAPGKGLEWVAGISFDGRSEYYADSVQGRFTISRDSSKNTLYLQMNSLRAEDTAVYYCARGAHYGFDIWGQGTMVTVSS
VL: B4 VL
B6: 12D5 IgG (antibody, V domains shown)
VH: B4 VH
VL: B4 VL

Columns and labels:
[1] = molecular target: T1, human c-mpl (thrombopoietin receptor) …; test: competition with 100 pM 125I-TPO for binding to HU-03 cells
[2] = molecular target: T2, mpl-Ig; test: TPO receptor-binding inhibition ELISA: biotinylated TPO on captured mpl-Ig
[3] = molecular target: T1, human c-mpl (thrombopoietin receptor) …; test: cell-based or functional assay
[4] = molecular target: T1, human c-mpl (thrombopoietin receptor) …; test: competition with 100 pM 125I-TPO for binding to human platelets
[5] = molecular target: human c-mpl (thrombopoietin receptor) on HU-03 cells and human platelets (human) (UniProt P40238); test: competition with 100 pM 125I-TPO for binding to HU-03 cells
[6] = molecular target: mpl-Rse.gD chimeric receptor (human, UniProt P40238 26-491); test: cell-based or functional assay
[7] = molecular target: human c-mpl (thrombopoietin receptor) on HU-03 cells and human platelets (human) (UniProt P40238); test: cell-based or functional assay

| Binder | IC50 [1] | IC50 [2] | Hu3 Proliferation (ED50) [3] | IC50 [4] | IC50 [5] | KIRA (ED50) [6] | Hu3 Proliferation (ED50) [7] |
| --- | --- | --- | --- | --- | --- | --- | --- |
| B1 | 5 nM | 1.6 nM | 0.005 nM | 5 nM |  |  |  |
| B2 |  |  |  |  | 900 nM | 3 nM | > 1000 nM |
| B3 | 10 nM | 17 nM | 0.02 nM | 100 nM |  | 1 nM |  |
| B4 | 500 nM | 1000 nM |  |  |  | 4 nM |  |
| B5 | 10 nM | 0.152 nM | 0.03 nM | 300 nM |  |  |  |
| B6 | 10 nM | 0.45 nM |  | 500 nM |  | 3 nM |  |
